Data reported in patent US20230250154A1 (CYTONICS, published 2023).

T1: MMP1 (human, UniProt P03956 100-469, limits assumed)
T1 sequence (looked up): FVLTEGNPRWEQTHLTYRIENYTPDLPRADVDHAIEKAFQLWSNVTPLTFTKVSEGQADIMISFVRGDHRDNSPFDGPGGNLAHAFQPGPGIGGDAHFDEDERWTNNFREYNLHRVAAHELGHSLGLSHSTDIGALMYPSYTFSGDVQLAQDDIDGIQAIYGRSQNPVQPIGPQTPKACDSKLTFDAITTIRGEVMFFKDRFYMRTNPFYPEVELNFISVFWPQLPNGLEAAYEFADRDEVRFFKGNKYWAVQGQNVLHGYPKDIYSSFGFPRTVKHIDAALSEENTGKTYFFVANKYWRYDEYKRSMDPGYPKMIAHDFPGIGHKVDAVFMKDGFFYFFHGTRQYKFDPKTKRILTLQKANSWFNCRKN

T2: Cathepsin G (UniProt P08311 21-244)
T2 sequence (looked up): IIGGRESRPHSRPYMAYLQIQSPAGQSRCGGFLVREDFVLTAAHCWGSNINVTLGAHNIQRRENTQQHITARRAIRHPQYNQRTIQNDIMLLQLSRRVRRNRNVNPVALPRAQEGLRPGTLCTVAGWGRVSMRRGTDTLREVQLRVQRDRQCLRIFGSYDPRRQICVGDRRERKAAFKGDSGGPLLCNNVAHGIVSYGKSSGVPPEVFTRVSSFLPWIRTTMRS


How the values were obtained:
Experiment in all cases: cell-based or functional assay
MMP1 = biological target: T1, MMP1
Elastase = biological target: Elastase
Cathepsin G = biological target: T2, Cathepsin G

| Protease Inhibition (% of WT) (MMP1) | Protease Inhibition (% of WT) (Elastase) | Protease Inhibition (% of WT) (Cathepsin G) | Binder |
| --- | --- | --- | --- |
| 200 % of WT | 250 % of WT | 100 % of WT | Variant A2M, bait region SEQ ID NO 138 (other) SVSGKPQYMVLVPSLLHTETTEKGCVLLSYLNETVTVSASLESVRGNRSLFTDLEAENDVLHCVAFAVPKSSSNEEVMFLTVQVKGPTQEFKKRTTVMVKNEDSLVFVQTDKSIYKPGQTVKFRVVSMDENFHPLNELIPLVYIQDPKGNRIAQWQSFQLEGGLKQFSFPLSSEPFQGSYKVVVQKKSGGRTEHPFTVEEFVLPKFEVQVTVPKIITILEEEMNVSVCGLYTYGKPVPGHVTVSICRKYSDASDCHGEDSQAFCEKFSGQLNSHGCFYQQVKTKVFQLKRKEYEMKLHTEAQIQEEGTVVELTGRQSSEITRTITKLSFVKVDSHFRQGIPFFGQVRLVDGKGVPIPNKVIFIRGNEANYYSNATTDEHGLVQFSINTTNVMGTSLTVRVNYKDRSPCYGYQWVSEEHEEAHHTAYLVFSPSKSFVHLEPMSHELPCGHTQTVQAHYILNGGTLLGLKKLSFYYLIMAKGGIVRTGTHGLLVKQEDMKGHFSISIPVKSDIAPVARLLIYAVLPTGDVIGDSAKYDVENCLANKVDLSFSPSQSLPASHAHLRVTAAPQSVCALRAVDQSVLLMKPDAELSASSVYNLLPEKDLTGFPGPLNDQDDEDCINRHNVYINGITYTPVSSTNEKDMYSFLEDMGLKAFTNSKIRKPKMCPQLEQYEMHGPSEDLVVQIEGEGEGEGIPENFFGVKEEEGLGSVEEPHTKLRKYFPETWIWDLVVVNSAGVAEVGVTVPDTITEWKAGAFCLSEDAGLGISSTASLRAFQPFFVELTMPYSVIRGEAFTLKATVLNYLPKCIRVSVQLEASPAFLAVPVEKEQAPHCICANGRQTVSWAVTPKSLGNVNFTVSAEALESQELCGTEVPSVPEHGRKDTVIKPLLVEPEGLEKETTFNSLLCPSGGEVSEELSLKLPPNVVEESARASVSVLGDILGSAMQNTQNLLQMPYGCGEQNMVLFAPNIYVLDYLNETQQLTPEIKSKAIGYLNTGYQRQLNYKHYDGSYSTFGERYGRNQGNTWLTAFVLKTFAQARAYIFIDEAHITQALIWLSQRQKDNGCFRSSGSLLNNAIKGGVEDEVTLSAYITIALLEIPLTVTHPVVRNALFCLESAWKTAQEGDHGSHVYTKALLAYAFALAGNQDKRKEVLKSLNEEAVKKDNSVHWERPQKPKAPVGHFYEPQAPSAEVEMTSYVLLAYLTAQPAPTSEDLTSATNIVKWITKQQNAQGGFSSTQDTVVALHALSKYGAATFTRTGKAAQVTIQSSGTFSSKFQVDNNNRLLLQQVSLPELPGEYSMKVTGEGCVYLQTSLKYNILPEKEEFPFALGVQTLPQTCDEPKAHTSFQISLSVSYTGSRSASNMAIVDVKMVSGFIPLKPTVKMLERSNHVSRTEVSSNHVLIYLDKVSNQTLSLFFTVLQDVPVRDLKPAIVKVYDYYETDEFAIAEYNAPCSKDLGNADYKDDDDKGASHHHHHH |
| 350 % of WT | 200 % of WT | 300 % of WT | Variant A2M, bait region SEQ ID NO 142 (other) SVSGKPQYMVLVPSLLHTETTEKGCVLLSYLNETVTVSASLESVRGNRSLFTDLEAENDVLHCVAFAVPKSSSNEEVMFLTVQVKGPTQEFKKRTTVMVKNEDSLVFVQTDKSIYKPGQTVKFRVVSMDENFHPLNELIPLVYIQDPKGNRIAQWQSFQLEGGLKQFSFPLSSEPFQGSYKVVVQKKSGGRTEHPFTVEEFVLPKFEVQVTVPKIITILEEEMNVSVCGLYTYGKPVPGHVTVSICRKYSDASDCHGEDSQAFCEKFSGQLNSHGCFYQQVKTKVFQLKRKEYEMKLHTEAQIQEEGTVVELTGRQSSEITRTITKLSFVKVDSHFRQGIPFFGQVRLVDGKGVPIPNKVIFIRGNEANYYSNATTDEHGLVQFSINTTNVMGTSLTVRVNYKDRSPCYGYQWVSEEHEEAHHTAYLVFSPSKSFVHLEPMSHELPCGHTQTVQAHYILNGGTLLGLKKLSFYYLIMAKGGIVRTGTHGLLVKQEDMKGHFSISIPVKSDIAPVARLLIYAVLPTGDVIGDSAKYDVENCLANKVDLSFSPSQSLPASHAHLRVTAAPQSVCALRAVDQSVLLMKPDAELSASSVYNLLPEKDLTGFPGPLNDQDDEDCINRHNVYINGITYTPVSSTNEKDMYSFLEDMGLKAFTNSKIRKPKMCPQLEQYEMHGPSELEGRGSIPENFFGVEGEGEGEGKEEEGLGSVEEPHTKLRKYFPETWIWDLVVVNSAGVAEVGVTVPDTITEWKAGAFCLSEDAGLGISSTASLRAFQPFFVELTMPYSVIRGEAFTLKATVLNYLPKCIRVSVQLEASPAFLAVPVEKEQAPHCICANGRQTVSWAVTPKSLGNVNFTVSAEALESQELCGTEVPSVPEHGRKDTVIKPLLVEPEGLEKETTFNSLLCPSGGEVSEELSLKLPPNVVEESARASVSVLGDILGSAMQNTQNLLQMPYGCGEQNMVLFAPNIYVLDYLNETQQLTPEIKSKAIGYLNTGYQRQLNYKHYDGSYSTFGERYGRNQGNTWLTAFVLKTFAQARAYIFIDEAHITQALIWLSQRQKDNGCFRSSGSLLNNAIKGGVEDEVTLSAYITIALLEIPLTVTHPVVRNALFCLESAWKTAQEGDHGSHVYTKALLAYAFALAGNQDKRKEVLKSLNEEAVKKDNSVHWERPQKPKAPVGHFYEPQAPSAEVEMTSYVLLAYLTAQPAPTSEDLTSATNIVKWITKQQNAQGGFSSTQDTVVALHALSKYGAATFTRTGKAAQVTIQSSGTFSSKFQVDNNNRLLLQQVSLPELPGEYSMKVTGEGCVYLQTSLKYNILPEKEEFPFALGVQTLPQTCDEPKAHTSFQISLSVSYTGSRSASNMAIVDVKMVSGFIPLKPTVKMLERSNHVSRTEVSSNHVLIYLDKVSNQTLSLFFTVLQDVPVRDLKPAIVKVYDYYETDEFAIAEYNAPCSKDLGNADYKDDDDKGASHHHHHH |
| 400 % of WT | 200 % of WT | 200 % of WT | Variant A2M, bait region SEQ ID NO 139 (other) SVSGKPQYMVLVPSLLHTETTEKGCVLLSYLNETVTVSASLESVRGNRSLFTDLEAENDVLHCVAFAVPKSSSNEEVMFLTVQVKGPTQEFKKRTTVMVKNEDSLVFVQTDKSIYKPGQTVKFRVVSMDENFHPLNELIPLVYIQDPKGNRIAQWQSFQLEGGLKQFSFPLSSEPFQGSYKVVVQKKSGGRTEHPFTVEEFVLPKFEVQVTVPKIITILEEEMNVSVCGLYTYGKPVPGHVTVSICRKYSDASDCHGEDSQAFCEKFSGQLNSHGCFYQQVKTKVFQLKRKEYEMKLHTEAQIQEEGTVVELTGRQSSEITRTITKLSFVKVDSHFRQGIPFFGQVRLVDGKGVPIPNKVIFIRGNEANYYSNATTDEHGLVQFSINTTNVMGTSLTVRVNYKDRSPCYGYQWVSEEHEEAHHTAYLVFSPSKSFVHLEPMSHELPCGHTQTVQAHYILNGGTLLGLKKLSFYYLIMAKGGIVRTGTHGLLVKQEDMKGHFSISIPVKSDIAPVARLLIYAVLPTGDVIGDSAKYDVENCLANKVDLSFSPSQSLPASHAHLRVTAAPQSVCALRAVDQSVLLMKPDAELSASSVYNLLPEKDLTGFPGPLNDQDDEDCINRHNVYINGITYTPVSSTNEKDMYSFLEDMGLKAFTNSKIRKPKMCPQLEQYEMHGPSEDLVVQIEGEGEGEGIPENFFGVEAIPMSIPTEPHTKLRKYFPETWIWDLVVVNSAGVAEVGVTVPDTITEWKAGAFCLSEDAGLGISSTASLRAFQPFFVELTMPYSVIRGEAFTLKATVLNYLPKCIRVSVQLEASPAFLAVPVEKEQAPHCICANGRQTVSWAVTPKSLGNVNFTVSAEALESQELCGTEVPSVPEHGRKDTVIKPLLVEPEGLEKETTFNSLLCPSGGEVSEELSLKLPPNVVEESARASVSVLGDILGSAMQNTQNLLQMPYGCGEQNMVLFAPNIYVLDYLNETQQLTPEIKSKAIGYLNTGYQRQLNYKHYDGSYSTFGERYGRNQGNTWLTAFVLKTFAQARAYIFIDEAHITQALIWLSQRQKDNGCFRSSGSLLNNAIKGGVEDEVTLSAYITIALLEIPLTVTHPVVRNALFCLESAWKTAQEGDHGSHVYTKALLAYAFALAGNQDKRKEVLKSLNEEAVKKDNSVHWERPQKPKAPVGHFYEPQAPSAEVEMTSYVLLAYLTAQPAPTSEDLTSATNIVKWITKQQNAQGGFSSTQDTVVALHALSKYGAATFTRTGKAAQVTIQSSGTFSSKFQVDNNNRLLLQQVSLPELPGEYSMKVTGEGCVYLQTSLKYNILPEKEEFPFALGVQTLPQTCDEPKAHTSFQISLSVSYTGSRSASNMAIVDVKMVSGFIPLKPTVKMLERSNHVSRTEVSSNHVLIYLDKVSNQTLSLFFTVLQDVPVRDLKPAIVKVYDYYETDEFAIAEYNAPCSKDLGNADYKDDDDKGASHHHHHH |
